# Measurements reported in patent US20250171562A1.
# B1: CIgG4E3A1(G4S)2 (Fc fusion)
# chain 1: GPPCPPCPAPEFLGGPSVFLFPPKPKDTLMISRTPEVTCVVVDVSQEDPEVQFNWYVDGVEVHNAKTKPREEQFNSTYRVVSVLTVLHQDWLNGKEYKCKVSNKGLPSSIEKTISKAKGQPREPQVYTLPPCQEEMTKNQVSLWCLVKGFYPSDIAVEWESNGQPENNYKTTPPVLDSDGSFFLYSRLTVDKSRWQEGNVFSCSVMHEALHNHYTQKSLSLSLGKGGGGSGGGGSDVQLQESGGGLVQAGGSLRLACAASGRTLSSYVVSWFRQAPGKERKFVAAITWSGLSTTYLDSVQGRFTISRDNTKDTVYLQMNSLKPQDTAIYYCAAGPNIPSILRTRESEYAYWGQGTQVTVS
# chain 2: GPPCPPCPAPEFLGGPSVFLFPPKPKDTLMISRTPEVTCVVVDVSQEDPEVQFNWYVDGVEVHNAKTKPREEQFNSTYRVVSVLTVLHQDWLNGKEYKCKVSNKGLPSSIEKTISKAKGQPREPQVCTLPPSQEEMTKNQVSLSCAVKGFYPSDIAVEWESNGQPENNYKTTPPVLDSDGSFFLVSRLTVDKSRWQEGNVFSCSVMHEALHNHYTQKSLSLSLGKGGGGSGGGGSEVQLLESGGGLVQPGGSLRLSCAASGFTFGNYDMAWVRQAPGKRPEWVSSIDTGGDITHYADSVKGRFTISRDNAKNTLYLQMNSLRPEDTAVYWCATDEEYALGPNEFDYYGQGTLVTVSS
# B2: NIgG4E4A1(G4S)2 (Fc fusion)
# chain 1: DVQLQESGGGLVQPGGSLRLSCAASGFRFSNYAMRWYRQAPGKEREFVARISSTGFITRYTASVRDRFTISRDNDKNMMYLQLNKLTPQDTAHYYCNAESTDYWGQGTQVTVSGGGGSGGGGSGPPCPPCPAPEFLGGPSVFLFPPKPKDTLMISRTPEVTCVVVDVSQEDPEVQFNWYVDGVEVHNAKTKPREEQFNSTYRVVSVLTVLHQDWLNGKEYKCKVSNKGLPSSIEKTISKAKGQPREPQVYTLPPCQEEMTKNQVSLWCLVKGFYPSDIAVEWESNGQPENNYKTTPPVLDSDGSFFLYSRLTVDKSRWQEGNVFSCSVMHEALHNHYTQKSLSLSLGK
# chain 2: EVQLLESGGGLVQPGGSLRLSCAASGFTFGNYDMAWVRQAPGKRPEWVSSIDTGGDITHYADSVKGRFTISRDNAKNTLYLQMNSLRPEDTAVYWCATDEEYALGPNEFDYYGQGTLVTVSSGGGGSGGGGSGPPCPPCPAPEFLGGPSVFLFPPKPKDTLMISRTPEVTCVVVDVSQEDPEVQFNWYVDGVEVHNAKTKPREEQFNSTYRVVSVLTVLHQDWLNGKEYKCKVSNKGLPSSIEKTISKAKGQPREPQVCTLPPSQEEMTKNQVSLSCAVKGFYPSDIAVEWESNGQPENNYKTTPPVLDSDGSFFLVSRLTVDKSRWQEGNVFSCSVMHEALHNHYTQKSLSLSLGK
# B3: CIgG4E3A1(G4S)3 (Fc fusion)
# chain 1: GPPCPPCPAPEFLGGPSVFLFPPKPKDTLMISRTPEVTCVVVDVSQEDPEVQFNWYVDGVEVHNAKTKPREEQFNSTYRVVSVLTVLHQDWLNGKEYKCKVSNKGLPSSIEKTISKAKGQPREPQVYTLPPCQEEMTKNQVSLWCLVKGFYPSDIAVEWESNGQPENNYKTTPPVLDSDGSFFLYSRLTVDKSRWQEGNVFSCSVMHEALHNHYTQKSLSLSLGKGGGGSGGGGSGGGGSDVQLQESGGGLVQAGGSLRLACAASGRTLSSYVVSWFRQAPGKERKFVAAITWSGLSTTYLDSVQGRFTISRDNTKDTVYLQMNSLKPQDTAIYYCAAGPNIPSILRTRESEYAYWGQGTQVTVS
# chain 2: GPPCPPCPAPEFLGGPSVFLFPPKPKDTLMISRTPEVTCVVVDVSQEDPEVQFNWYVDGVEVHNAKTKPREEQFNSTYRVVSVLTVLHQDWLNGKEYKCKVSNKGLPSSIEKTISKAKGQPREPQVCTLPPSQEEMTKNQVSLSCAVKGFYPSDIAVEWESNGQPENNYKTTPPVLDSDGSFFLVSRLTVDKSRWQEGNVFSCSVMHEALHNHYTQKSLSLSLGKGGGGSGGGGSGGGGSEVQLLESGGGLVQPGGSLRLSCAASGFTFGNYDMAWVRQAPGKRPEWVSSIDTGGDITHYADSVKGRFTISRDNAKNTLYLQMNSLRPEDTAVYWCATDEEYALGPNEFDYYGQGTLVTVSS
# B4: NIgG4E4A1(G4S)1 (Fc fusion)
# chain 1: DVQLQESGGGLVQPGGSLRLSCAASGFRFSNYAMRWYRQAPGKEREFVARISSTGFITRYTASVRDRFTISRDNDKNMMYLQLNKLTPQDTAHYYCNAESTDYWGQGTQVTVSGGGGSGPPCPPCPAPEFLGGPSVFLFPPKPKDTLMISRTPEVTCVVVDVSQEDPEVQFNWYVDGVEVHNAKTKPREEQFNSTYRVVSVLTVLHQDWLNGKEYKCKVSNKGLPSSIEKTISKAKGQPREPQVYTLPPCQEEMTKNQVSLWCLVKGFYPSDIAVEWESNGQPENNYKTTPPVLDSDGSFFLYSRLTVDKSRWQEGNVFSCSVMHEALHNHYTQKSLSLSLGK
# chain 2: EVQLLESGGGLVQPGGSLRLSCAASGFTFGNYDMAWVRQAPGKRPEWVSSIDTGGDITHYADSVKGRFTISRDNAKNTLYLQMNSLRPEDTAVYWCATDEEYALGPNEFDYYGQGTLVTVSSGGGGSGPPCPPCPAPEFLGGPSVFLFPPKPKDTLMISRTPEVTCVVVDVSQEDPEVQFNWYVDGVEVHNAKTKPREEQFNSTYRVVSVLTVLHQDWLNGKEYKCKVSNKGLPSSIEKTISKAKGQPREPQVCTLPPSQEEMTKNQVSLSCAVKGFYPSDIAVEWESNGQPENNYKTTPPVLDSDGSFFLVSRLTVDKSRWQEGNVFSCSVMHEALHNHYTQKSLSLSLGK
# B5: NIgG4E4A1(G4S)3 (Fc fusion)
# chain 1: DVQLQESGGGLVQPGGSLRLSCAASGFRFSNYAMRWYRQAPGKEREFVARISSTGFITRYTASVRDRFTISRDNDKNMMYLQLNKLTPQDTAHYYCNAESTDYWGQGTQVTVSGGGGSGGGGSGGGGSGPPCPPCPAPEFLGGPSVFLFPPKPKDTLMISRTPEVTCVVVDVSQEDPEVQFNWYVDGVEVHNAKTKPREEQFNSTYRVVSVLTVLHQDWLNGKEYKCKVSNKGLPSSIEKTISKAKGQPREPQVYTLPPCQEEMTKNQVSLWCLVKGFYPSDIAVEWESNGQPENNYKTTPPVLDSDGSFFLYSRLTVDKSRWQEGNVFSCSVMHEALHNHYTQKSLSLSLGK
# chain 2: EVQLLESGGGLVQPGGSLRLSCAASGFTFGNYDMAWVRQAPGKRPEWVSSIDTGGDITHYADSVKGRFTISRDNAKNTLYLQMNSLRPEDTAVYWCATDEEYALGPNEFDYYGQGTLVTVSSGGGGSGGGGSGGGGSGPPCPPCPAPEFLGGPSVFLFPPKPKDTLMISRTPEVTCVVVDVSQEDPEVQFNWYVDGVEVHNAKTKPREEQFNSTYRVVSVLTVLHQDWLNGKEYKCKVSNKGLPSSIEKTISKAKGQPREPQVCTLPPSQEEMTKNQVSLSCAVKGFYPSDIAVEWESNGQPENNYKTTPPVLDSDGSFFLVSRLTVDKSRWQEGNVFSCSVMHEALHNHYTQKSLSLSLGK
# B6: CIgG4E4A1(RS) (Fc fusion)
# chain 1: GPPCPPCPAPEFLGGPSVFLFPPKPKDTLMISRTPEVTCVVVDVSQEDPEVQFNWYVDGVEVHNAKTKPREEQFNSTYRVVSVLTVLHQDWLNGKEYKCKVSNKGLPSSIEKTISKAKGQPREPQVYTLPPCQEEMTKNQVSLWCLVKGFYPSDIAVEWESNGQPENNYKTTPPVLDSDGSFFLYSRLTVDKSRWQEGNVFSCSVMHEALHNHYTQKSLSLSLGKRSDVQLQESGGGLVQPGGSLRLSCAASGFRFSNYAMRWYRQAPGKEREFVARISSTGFITRYTASVRDRFTISRDNDKNMMYLQLNKLTPQDTAHYYCNAESTDYWGQGTQVTVS
# chain 2: GPPCPPCPAPEFLGGPSVFLFPPKPKDTLMISRTPEVTCVVVDVSQEDPEVQFNWYVDGVEVHNAKTKPREEQFNSTYRVVSVLTVLHQDWLNGKEYKCKVSNKGLPSSIEKTISKAKGQPREPQVCTLPPSQEEMTKNQVSLSCAVKGFYPSDIAVEWESNGQPENNYKTTPPVLDSDGSFFLVSRLTVDKSRWQEGNVFSCSVMHEALHNHYTQKSLSLSLGKRSEVQLLESGGGLVQPGGSLRLSCAASGFTFGNYDMAWVRQAPGKRPEWVSSIDTGGDITHYADSVKGRFTISRDNAKNTLYLQMNSLRPEDTAVYWCATDEEYALGPNEFDYYGQGTLVTVSS
# B7: CIgG4E3A1(G4S)1 (Fc fusion)
# chain 1: GPPCPPCPAPEFLGGPSVFLFPPKPKDTLMISRTPEVTCVVVDVSQEDPEVQFNWYVDGVEVHNAKTKPREEQFNSTYRVVSVLTVLHQDWLNGKEYKCKVSNKGLPSSIEKTISKAKGQPREPQVYTLPPCQEEMTKNQVSLWCLVKGFYPSDIAVEWESNGQPENNYKTTPPVLDSDGSFFLYSRLTVDKSRWQEGNVFSCSVMHEALHNHYTQKSLSLSLGKGGGGSDVQLQESGGGLVQAGGSLRLACAASGRTLSSYVVSWFRQAPGKERKFVAAITWSGLSTTYLDSVQGRFTISRDNTKDTVYLQMNSLKPQDTAIYYCAAGPNIPSILRTRESEYAYWGQGTQVTVS
# chain 2: GPPCPPCPAPEFLGGPSVFLFPPKPKDTLMISRTPEVTCVVVDVSQEDPEVQFNWYVDGVEVHNAKTKPREEQFNSTYRVVSVLTVLHQDWLNGKEYKCKVSNKGLPSSIEKTISKAKGQPREPQVCTLPPSQEEMTKNQVSLSCAVKGFYPSDIAVEWESNGQPENNYKTTPPVLDSDGSFFLVSRLTVDKSRWQEGNVFSCSVMHEALHNHYTQKSLSLSLGKGGGGSEVQLLESGGGLVQPGGSLRLSCAASGFTFGNYDMAWVRQAPGKRPEWVSSIDTGGDITHYADSVKGRFTISRDNAKNTLYLQMNSLRPEDTAVYWCATDEEYALGPNEFDYYGQGTLVTVSS
# B8: NIgG4E4A1(RS) (Fc fusion)
# chain 1: DVQLQESGGGLVQPGGSLRLSCAASGFRFSNYAMRWYRQAPGKEREFVARISSTGFITRYTASVRDRFTISRDNDKNMMYLQLNKLTPQDTAHYYCNAESTDYWGQGTQVTVSRSGPPCPPCPAPEFLGGPSVFLFPPKPKDTLMISRTPEVTCVVVDVSQEDPEVQFNWYVDGVEVHNAKTKPREEQFNSTYRVVSVLTVLHQDWLNGKEYKCKVSNKGLPSSIEKTISKAKGQPREPQVYTLPPCQEEMTKNQVSLWCLVKGFYPSDIAVEWESNGQPENNYKTTPPVLDSDGSFFLYSRLTVDKSRWQEGNVFSCSVMHEALHNHYTQKSLSLSLGK
# chain 2: EVQLLESGGGLVQPGGSLRLSCAASGFTFGNYDMAWVRQAPGKRPEWVSSIDTGGDITHYADSVKGRFTISRDNAKNTLYLQMNSLRPEDTAVYWCATDEEYALGPNEFDYYGQGTLVTVSSRSGPPCPPCPAPEFLGGPSVFLFPPKPKDTLMISRTPEVTCVVVDVSQEDPEVQFNWYVDGVEVHNAKTKPREEQFNSTYRVVSVLTVLHQDWLNGKEYKCKVSNKGLPSSIEKTISKAKGQPREPQVCTLPPSQEEMTKNQVSLSCAVKGFYPSDIAVEWESNGQPENNYKTTPPVLDSDGSFFLVSRLTVDKSRWQEGNVFSCSVMHEALHNHYTQKSLSLSLGK
# Molecular target: mixture of three Der p 2 specific recombinant human IgE clones H10, H12, P4E (human) (UniProt P01854)
# Assay: RBL-SX38 IgE displacement, FACS
# Chain of mixture of three Der p 2 specific recombinant human IgE clones H10, H12, P4E (human) (P01854 other isoform, or with tags, fused parts or gaps): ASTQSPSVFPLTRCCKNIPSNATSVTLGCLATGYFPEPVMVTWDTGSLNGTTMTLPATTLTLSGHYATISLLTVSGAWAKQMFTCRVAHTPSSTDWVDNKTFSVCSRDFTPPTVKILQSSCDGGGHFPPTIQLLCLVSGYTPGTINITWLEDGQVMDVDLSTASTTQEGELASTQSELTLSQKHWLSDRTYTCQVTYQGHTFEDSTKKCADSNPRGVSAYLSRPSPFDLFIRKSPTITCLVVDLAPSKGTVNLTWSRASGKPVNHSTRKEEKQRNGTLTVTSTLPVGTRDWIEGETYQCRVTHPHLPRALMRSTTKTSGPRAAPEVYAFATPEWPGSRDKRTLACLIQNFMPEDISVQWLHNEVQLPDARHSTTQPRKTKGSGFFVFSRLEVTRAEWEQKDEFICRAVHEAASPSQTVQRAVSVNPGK
Binder,EC50,Max effect/effect 1 µM
B1,172 nM,94%
B2,16.4 nM,98%
B3,162 nM,73%
B4,17 nM,97%
B5,36 nM,92%
B6,,0%
B7,277 nM,76%
B8,6.2 nM,90%
